Measurements taken from patent publication US6518401B2, “Tumor necrosis factor stimulated gene 6 (TSG-6) protein” (New York University, priority 1991, dated 2003).

B1: IαI: inter-α-inhibitor purified from human serum; the TSG-6 binding protein (protein)
chain 1: AVLPQEEEGSGGGQLVTEVTKKEDSCQLGYSAGPCMGMTSRYFYNGTSMACETFQYGGCMGNGNNFVTEKECLQTCRTVAACNLPIVRGPCRAFIQLWAFDAVKGKCVLFPYGGCQGNGNKFYSEKECREYCGVPGDGDEELLRFSN
chain 2: SLPGESEEMMEEVDQVTLYSYKVQSTITSRMATTMIQSKVVNNSPQPQNVVFDVQIPKGAFISNFSMTVDGKTFRSSIKEKTVGRALYAQARAKGKTAGLVRSSALDMENFRTEVNVLPGAKVQFELHYQEVKWRKLGSYEHRIYLQPGRLAKHLEVDVWVIEPQGLRFLHVPDTFEGHFDGVPVISKGQQKAHVSFKPTVAQQRICPNCRETAVDGELVVLYDVKREEKAGELEVFNGYFVHFFAPDNLDPIPKNILFVIDVSGSMWGVKMKQTVEAMKTILDDLRAEDHFSVIDFNQNIRTWRNDLISATKTQVADAKRYIEKIQPSGGTNINEALLRAIFILNEANNLGLLDPNSVSLIILVSDGDPTVGELKLSKIQKNVKENIQDNISLFSLGMGFDVDYDFLKRLSNENHGIAQRIYGNQDTSSQLKKFYNQVSTPLLRNVQFNYPHTSVTDVTQNNFHNYFGGSEIVVAGKFDPAKLDQIESVITATSANTQLVLETLAQMDDLQDFLSKDKHADPDFTRKLWAYLTINQLLAERSLAPTAAAKRRITRSILQMSLDHHIVTPLTSLVIENEAGDERMLADAPPQDPSCCSGALYYGSKVVPDSTPSWANPSPTPVISMLAQGSQVLESTPPPHVMRVEND
chain 3: SKSSEKRQAVDTAVDGVFIRSLKVNCKVTSRFAHYVVTSQVVNTANEAREVAFDLEIPKTAFISDFAVTADGNAFIGDIKDKVTAWKQYRKAAISGENAGLVRASGRTMEQFTIHLTVNPQSKVTFQLTYEEVLKRNHMQYEIVIKVKPKQLVHHFEIDVDIFEPQGISKLDAQASFLPKELAAQTIKKSFSGKKGHVLFRPTVSQQQSCPTCSTSLLNGHFKVTYDVSRDKICDLLVANNHFAHFFAPQNLTNMNKNVVFVIDISGSMRGQKVKQTKEALLKILGDMQPGDYFDLVLFGTRVQSWKGSLVQASEANLQAAQDFVRGFSLDEATNLNGGLLRGIEILNQVQESLPELSNHASILIMLTDGDPTEGVTDRSQILKNVRNAIRGRFPLYNLGFGHNVDFNFLEVMSMENNGRAQRIYEDHDATQQLQGFYSQVAKPLLVDVDLQYPQDAVLALTQNHHKQYYEGSEIVVAGRIADNKQSSFKADVQAHGEGQEFSITCLVDEEEMKKLLRERGHMLENHVERLWAYLTIQELLAKRMKVDREERANLSSQALQMSLDYGFVTPLTSMSIRGMADQDGLKPTIDKPSEDSPPLEMLGPRRTFVLSALQPSPTHSSSNTQRLPDRVTGVDTD
B2: IL-1: E. coli-derived recombinant human IL-1α (protein, UniProt P01583 113-271, looked up)
Interleukin-1 alpha: SAPFSFLSNVKYNFMRIIKYEFILNDALNQSIIRANDQYLTAAALHNLDEAVKFDMGAYKSSKDDAKITVILRISKTQLYVTAQDEDQPVLLKEMPEIPKTITGSETNLLFFWETHGTKNYFTSVAHPNLFIATKQDYWVCLAGGPPSITDFQILENQA
modifications: E. coli recombinant
notes: E. coli-derived recombinant human IL-1α

Tests used:
[1] = molecular target: T1, IαI purified from human serum (Homo sapiens, UniProt P02760+P19823); assay: TSG-6/IαI complex formation with purified proteins (SDS-PAGE, Western blot); type: binding; details: preincubated 16 hrs. at 37° C. with chondroitinase, then mixed with the untreated partner protein
T1 construct: IαI is a complex protein in which the bikunin chain is linked to HC1 and HC2; supposed to determine the cleavage site for the C-terminal propeptide; from tissue; host or cells: human serum
T1 sequence (P98066 18-277 partner, one chain of several): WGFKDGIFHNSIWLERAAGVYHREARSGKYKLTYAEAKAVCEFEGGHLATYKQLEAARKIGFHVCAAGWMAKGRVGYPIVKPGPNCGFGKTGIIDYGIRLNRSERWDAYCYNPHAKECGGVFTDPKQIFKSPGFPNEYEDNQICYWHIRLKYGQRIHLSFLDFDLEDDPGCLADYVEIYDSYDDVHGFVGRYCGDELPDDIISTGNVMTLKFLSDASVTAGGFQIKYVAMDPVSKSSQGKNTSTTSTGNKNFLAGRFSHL
Procedure: Purified recombinant TSG-6 protein (lane 1) and IαI purified from human serum (lane 2) were mixed and incubated for 2 min. (lane 3), 5 min. (lane 4), 10 min. (lane 5), 15 min. (lane 6), 30 min. (lane 7), or for 60 min. (lane 8) at 37° C. or for 60 min. at 0° C. (lane 9). The reaction mixtures were then separated by SDS-PAGE and subjected to Western blot analysis with rabbit anti-TSG-6 serum.
Four micrograms of purified IαI and 3 μg of purified TSG-6 protein were incubated separately for 16 hrs. at 37° C. in the absence or presence of 30 milliunits of chondroitin sulfate ABC lyase. […]
Analysis of TSG-6 Binding to Carrier Protein. To determine the presence of TSG-6 binding protein, samples to be analyzed were mixed with an equal volume of TSG-6-containing serum-free supernatants of TN-5 B insect cells infected with recombinant Baculovirus and incubated at 37° C. for 30-60 min. (Purified TSG-6 protein was used in some experiments, as indicated.) Thereafter, the mixtures were analyzed for the presence of the 120-kDa complex by Western blotting with purified rabbit antibody to TSG-6 as described earlier (Wisniewski et al, J. Immunol. 151:6593-6601 (1993)). […]
Rapid Complex Formation between Recombinant TSG-6 Protein and IαI Purified from Human Serum at 37° C. The 120kDa TSG-6/IαI complex formed readily when purified TSG-6 protein and purified IαI were incubated together at 37° C. but not at 0° C. […]

[2] = system: TSG-1 (IL-8) mRNA; assay: Northern blot analysis of TSG mRNA levels in FS-4 cells; type: cell-based, human; details: growth arrested FS-4 cells, 2 h; TNF 20 ng/ml, CHX 10 ug/ml, IFN-β 500 U/ml, IFN-γ 100 U/ml, IL-1-α 1 ng/ml, EGF 25 ng/ml, TGF-β 2 ng/ml, poly(I).poly(C) 50 ug/ml, TPA 100 ng/ml, A23187 1 uM, forskolin 10 uM, dBcAMP 100 uM, IBMX 100 uM
Procedure: (§1) The human diploid FS-4 foreskin fibroblast cell line (Vilcek, J. et al, Proc. Natl. Acad. Sci. USA 70:3909-3913 (1973)) was used at passage level 15 in all experiments. FS-4 cells were grown in Eagle minimal essential medium (E-MEM) supplemented with 6 mM HEPES, 3 mM Tricine, 50 μg/ml gentamicin, and 5% heat inactivated (56° C., 30 min) fetal bovine serum (FBS; GIBCO Laboratories, Grand Island, N.Y.). For experiments, 4×10^6 cells were seeded in 175 cm^2 Falcon flasks, incubated at 37° C., and allowed to grow to confluence over 6 days. The confluent monolayers were washed once with phosphate buffered saline and replenished with E-MEM containing […] FBS. The cultures were incubated in this medium for another 72 h at 37° C. to let the cells become quiescent and then treated with the appropriate agents, as specified herein.
(§2) Cytoplasmic RNA was fractionated on a 1% agarose gel containing formaldehyde and blotted onto Zeta-probe blotting membranes (Bio-Rad Laboratories, Richmond, Calif.). Cytoplasmic RNA was loaded at 10 μg/lane. Prehybridization and hybridization of Northern blots were performed as described (Lin, J.-X. et al, supra). Filters were probed with 32P-labeled cDNA insert from recombinant M13 clones and/or with 32P-labeled internal reference pHe7 insert. Northern blots were quantified with a laser densitometer.
(§3) The increase in mRNA levels ranged from about 3-fold (TSG-21) to over 100-fold (TSG-6 and TSG-8).
(§4) Table 3 provides a summary of a large number of experiments in which levels of mRNAs corresponding to the 8 distinct TSG cDNAs were determined in FS-4 cells exposed to various agents by Northern blot analysis. Three of the mRNAs (corresponding to TSG-8, TSG-12 and TSG-14) were inducible by the protein synthesis inhibitor, cycloheximide (CHX). […] In contrast, induction of the remaining 3 mRNAs by TNF was inhibited or reduced in the presence of CHX. Five of the mRNAs were inducible by IFN-β, but only two of these responded to […]. Simultaneous treatment with IFN-β reduced inducibility of TSG-1 (=IL-8) mRNA by TNF, but increased the inducibility of TSG-6 and TSG-37 mRNAs. All mRNAs were inducible by IL-1 and by the doublestranded RNA poly(I)-poly(C) or the phorbol ester 12-O-tetradecanoyl phorbol 13-acetate (TPA), but the efficiency of induction by these agents varied. Epidermal growth factor (EGF) was moderately efficient in increasing TSG-21 (=collagenase) and TSG-27 (=stromelysin) mRNA levels, and weakly stimulated several other mRNAs. PDGF and transforming growth factor-β (TGF-β) were only weakly effective, as were dibutyryl cyclic AMP (dBcAMP) and the phosphodiesterase inhibitor, isobutyl methyl xanthine (IBMX).

[3] = system: TSG-12 mRNA; assay: as above; type: cell-based, human; details: growth arrested FS-4 cells, 2 h; TNF 20 ng/ml, CHX 10 ug/ml, IFN-β 500 U/ml, IFN-γ 100 U/ml, IL-1-α 1 ng/ml, EGF 25 ng/ml, TGF-β 2 ng/ml, poly(I).poly(C) 50 ug/ml, TPA 100 ng/ml, A23187 1 uM, forskolin 10 uM, dBcAMP 100 uM, IBMX 100 uM
Procedure: as §1, §2, §3, §4

[4] = system: TSG-14 mRNA; assay: as above; type: cell-based, human; details: growth arrested FS-4 cells, 2 h; TNF 20 ng/ml, CHX 10 ug/ml, IFN-β 500 U/ml, IFN-γ 100 U/ml, IL-1-α 1 ng/ml, EGF 25 ng/ml, TGF-β 2 ng/ml, poly(I).poly(C) 50 ug/ml, TPA 100 ng/ml, A23187 1 uM, forskolin 10 uM, dBcAMP 100 uM, IBMX 100 uM
Procedure: as §1, §2, §3, §4

[5] = system: TSG-21 (Collagenase) mRNA; assay: as above; type: cell-based, human; details: growth arrested FS-4 cells, 16 h of treatment; TNF 20 ng/ml, CHX 10 ug/ml, IFN-β 500 U/ml, IFN-γ 100 U/ml, IL-1-α 1 ng/ml, EGF 25 ng/ml, TGF-β 2 ng/ml, poly(I).poly(C) 50 ug/ml, TPA 100 ng/ml, forskolin 10 uM, IBMX 100 uM
Procedure: as §1, §2, §3, §4

[6] = system: TSG-27 (Stromelysin) mRNA; assay: as above; type: cell-based, human; details: growth arrested FS-4 cells, 16 h of treatment; TNF 20 ng/ml, CHX 10 ug/ml, IFN-β 500 U/ml, IFN-γ 100 U/ml, IL-1-α 1 ng/ml, EGF 25 ng/ml, TGF-β 2 ng/ml, poly(I).poly(C) 50 ug/ml, TPA 100 ng/ml, forskolin 10 uM, IBMX 100 uM
Procedure: as §1, §2, §3, §4

[7] = system: TSG-37 (MT-II) mRNA; assay: as above; type: cell-based, human; details: growth arrested FS-4 cells, 2 h; TNF 20 ng/ml, CHX 10 ug/ml, IFN-β 500 U/ml, IFN-γ 100 U/ml, IL-1-α 1 ng/ml, EGF 25 ng/ml, TGF-β 2 ng/ml, poly(I).poly(C) 50 ug/ml, TPA 100 ng/ml, A23187 1 uM, forskolin 10 uM, dBcAMP 100 uM, IBMX 100 uM
Procedure: as §1, §2, §3, §4

[8] = system: TSG-6 mRNA; assay: as above; type: cell-based, human; details: growth arrested FS-4 cells, 2 h; TNF 20 ng/ml, CHX 10 ug/ml, IFN-β 500 U/ml, IFN-γ 100 U/ml, IL-1-α 1 ng/ml, EGF 25 ng/ml, TGF-β 2 ng/ml, poly(I).poly(C) 50 ug/ml, TPA 100 ng/ml, A23187 1 uM, forskolin 10 uM, dBcAMP 100 uM, IBMX 100 uM
Procedure: as §1, §2, §3, §4

[9] = system: TSG-8 (MCAF) mRNA; assay: as above; type: cell-based, human; details: growth arrested FS-4 cells, 2 h; TNF 20 ng/ml, CHX 10 ug/ml, IFN-β 500 U/ml, IFN-γ 100 U/ml, IL-1-α 1 ng/ml, EGF 25 ng/ml, TGF-β 2 ng/ml, poly(I).poly(C) 50 ug/ml, TPA 100 ng/ml, A23187 1 uM, forskolin 10 uM, dBcAMP 100 uM, IBMX 100 uM
Procedure: as §1, §2, §3, §4

Molecule	ability to form the TSG-6/IαI complex after pretreatment of the protein with chondroitin sulfate ABC lyase [1]	Relative Increase in mRNA Level TSG-1 (IL-8) [2]	Relative Increase in mRNA Level TSG-12 [3]	Relative Increase in mRNA Level TSG-14 [4]	Relative Increase in mRNA Level TSG-21 (Collagenase) [5]	Relative Increase in mRNA Level TSG-27 (Stromelysin) [6]	Relative Increase in mRNA Level TSG-37 (MT-II) [7]	Relative Increase in mRNA Level TSG-6 [8]	Relative Increase in mRNA Level TSG-8 (MCAF) [9]
B1	no longer able to form a complex								
B2		+	++++	++++	++	++	++	+	++
